Experimental data reported in patent publication US20240369535A1, “METHODS AND MATERIALS FOR DETERMINING pGC TARGET DOSAGE” (Mayo Foundation for Medical Education and Research, priority 2021, published 2024).

Columns and labels:
human GC-A [1] = molecular target: T1, human GC-A (Homo sapiens, UniProt P16066); assay: Ex vivo MCUF-651 therapeutic potency assay with human plasma (Example 2), HEK293 overexpressing human GC-A; format: cell-based
T1 construct: expressed in transfected cells
T1 sequence (P16066 33-1061): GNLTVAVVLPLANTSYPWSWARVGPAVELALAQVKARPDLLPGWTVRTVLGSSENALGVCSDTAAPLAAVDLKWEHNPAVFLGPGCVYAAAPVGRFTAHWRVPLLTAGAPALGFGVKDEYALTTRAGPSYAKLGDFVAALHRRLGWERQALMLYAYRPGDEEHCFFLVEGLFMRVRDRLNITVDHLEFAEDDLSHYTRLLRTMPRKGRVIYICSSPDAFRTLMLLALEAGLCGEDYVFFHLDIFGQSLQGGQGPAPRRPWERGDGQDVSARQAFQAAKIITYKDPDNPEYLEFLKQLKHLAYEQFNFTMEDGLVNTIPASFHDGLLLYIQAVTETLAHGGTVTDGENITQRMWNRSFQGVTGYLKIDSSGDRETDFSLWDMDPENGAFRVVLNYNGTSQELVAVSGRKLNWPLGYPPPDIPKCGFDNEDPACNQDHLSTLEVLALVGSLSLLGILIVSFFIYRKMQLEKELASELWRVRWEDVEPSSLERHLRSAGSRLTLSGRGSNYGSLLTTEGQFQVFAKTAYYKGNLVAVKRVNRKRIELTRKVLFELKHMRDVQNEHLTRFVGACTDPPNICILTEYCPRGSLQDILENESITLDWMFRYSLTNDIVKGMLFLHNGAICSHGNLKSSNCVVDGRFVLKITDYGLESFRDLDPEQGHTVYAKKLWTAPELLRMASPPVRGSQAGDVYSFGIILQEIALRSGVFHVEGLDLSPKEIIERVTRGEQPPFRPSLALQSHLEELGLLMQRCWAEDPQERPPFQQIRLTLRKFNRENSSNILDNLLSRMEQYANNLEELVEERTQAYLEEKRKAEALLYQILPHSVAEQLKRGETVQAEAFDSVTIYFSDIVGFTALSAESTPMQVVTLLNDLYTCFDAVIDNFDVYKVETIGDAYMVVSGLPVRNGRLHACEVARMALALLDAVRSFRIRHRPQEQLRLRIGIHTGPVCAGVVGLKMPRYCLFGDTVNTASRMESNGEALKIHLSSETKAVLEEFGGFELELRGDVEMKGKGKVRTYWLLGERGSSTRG
Procedure: Ex Vivo MCUF-651 Therapeutic Potency Assay with Human Plasma from Normal Subjects and Patients with Hypertension and Heart Failure: Stored human plasma samples from normal subjects and patients with HT and HF were utilized. The details of the recruitment of these participants were as described elsewhere (Reginauld et al., supra; and Ferrario et al., Hypertension 77:882-890, 2021). […] HEK293 overexpressing human GC-A were cultured and grown as described above. Cells were grown in 48-well plates to 80-90% confluence. On the day of the experiment, cells were pre-incubated with MCUF-651 at doses of 1, 5, or 10 μM or with vehicle (Veh) in 250 μL treatment buffer (as described above) for 5 minutes at 37° C. 25 μL of human plasma was then added and incubated for additional 10 minutes. Cells were then washed with PBS once and lysed with 0.1 M HCl, and intracellular cGMP levels were measured in the lysate using a commercial cGMP ELISA kit (Enzo Life Sciences, Farmingdale, NY) as instructed by the manufacturer.

human pGC-A [2] = molecular target: T2, human pGC-A (Homo sapiens, UniProt P16066); assay: MCUF-651/NP/pGC-A/cGMP potency assay (Example 5), HEK293 cells overexpressing human pGC-A; format: cell-based; settings: for cGMP potency: particularly at 5 and 10 μM
T2 construct: expressed in transfected cells
T2 sequence (P16066 33-1061): T1 sequence (P16066 33-1061)
Procedure: (§1) In vitro Cell Culture: HEK 293 cells were stably transfected with human pGC-A or pGC-B using LIPOFECTAMINE™ (Invitrogen, Grand Island, NY) (Chen et al. 2020, supra). Transfected cells (HEK/GC-A or (HEK/GC-B) were maintained in DMEM supplemented with 10% FBS and 250 μg/ml G418. Cells in 48-well plates were grown to 80-90% confluency and then incubated in Hanks Balanced Salt Solution (HBSS, Invitrogen) containing 20 mM HEPES, 0.1% BSA, and 0.5 mM 3-isobutyl-1-methylxanthine (IBMX, Sigma).
MCUF-651/NP/pGC-A/cGMP Potency Assay: Human plasma samples from patients with HT (N=6), ADHF (N=6), and CKD (N=5) were utilized. The details of the recruitment of participants are described above. Stably transfected HEK293 cells engineered to overexpress human pGC-A were cultured (as described above) and grown in 48-well plates to 80-90% confluence. On the day of the experiment, human plasma was diluted 10× with HBSS. 250 μl of diluted plasma was added together with vehicle (DSMO) or the MCUF-651 small molecule pGC-A positive allosteric modulator at doses of 1, 5, or 10 μM to the HEK/pGC-A cells and incubated for 10 minutes at 37° C. Cells were then washed with PBS once and lysed with 0.1 M HCl, and intracellular cGMP levels were measured in the lysate using a commercial cGMP ELISA kit (Enzo Life Sciences, Farmingdale, NY) as instructed by the manufacturer.

human GC-A [3] = molecular target: T1, human GC-A; assay: NP/GC-A/cGMP potency assay (Example 1): cGMP production in HEK293 cells overexpressing human GC-A; format: cell-based
Procedure: Transfected cells (HEK/GCA) were maintained in Dulbecco Modified Eagle medium (DMEM) supplemented with 10% FBS, and 250 μg/ml G418. Cells in 48-well plates were grown to 80-90% confluency and then incubated in Hanks Balanced Salt Solution (HBSS, Invitrogen) containing 20 mM HEPES, 0.1% BSA and 0.5 mM 3-isobutyl-1-methylxanthine (IBMX, Sigma).
A stable transfected cell line of HEK293 cells engineered to overexpress human GC-A was grown in 48-well plates to 80-90% confluency. […] Studies were repeated with human plasma with or without addition of the designer GC-A activator, MANP, at doses of 10^−10 M and 10^−8 M.

human pGC-B = molecular target: T3, human pGC-B (Homo sapiens, UniProt P20594); assay: NP/pGC-B/cGMP potency assay (Example 5), HEK293 cells overexpressing human pGC-B; format: cell-based; settings: ADHF plasma
T3 construct: expressed in transfected cells
T3 sequence (P20594 23-1047): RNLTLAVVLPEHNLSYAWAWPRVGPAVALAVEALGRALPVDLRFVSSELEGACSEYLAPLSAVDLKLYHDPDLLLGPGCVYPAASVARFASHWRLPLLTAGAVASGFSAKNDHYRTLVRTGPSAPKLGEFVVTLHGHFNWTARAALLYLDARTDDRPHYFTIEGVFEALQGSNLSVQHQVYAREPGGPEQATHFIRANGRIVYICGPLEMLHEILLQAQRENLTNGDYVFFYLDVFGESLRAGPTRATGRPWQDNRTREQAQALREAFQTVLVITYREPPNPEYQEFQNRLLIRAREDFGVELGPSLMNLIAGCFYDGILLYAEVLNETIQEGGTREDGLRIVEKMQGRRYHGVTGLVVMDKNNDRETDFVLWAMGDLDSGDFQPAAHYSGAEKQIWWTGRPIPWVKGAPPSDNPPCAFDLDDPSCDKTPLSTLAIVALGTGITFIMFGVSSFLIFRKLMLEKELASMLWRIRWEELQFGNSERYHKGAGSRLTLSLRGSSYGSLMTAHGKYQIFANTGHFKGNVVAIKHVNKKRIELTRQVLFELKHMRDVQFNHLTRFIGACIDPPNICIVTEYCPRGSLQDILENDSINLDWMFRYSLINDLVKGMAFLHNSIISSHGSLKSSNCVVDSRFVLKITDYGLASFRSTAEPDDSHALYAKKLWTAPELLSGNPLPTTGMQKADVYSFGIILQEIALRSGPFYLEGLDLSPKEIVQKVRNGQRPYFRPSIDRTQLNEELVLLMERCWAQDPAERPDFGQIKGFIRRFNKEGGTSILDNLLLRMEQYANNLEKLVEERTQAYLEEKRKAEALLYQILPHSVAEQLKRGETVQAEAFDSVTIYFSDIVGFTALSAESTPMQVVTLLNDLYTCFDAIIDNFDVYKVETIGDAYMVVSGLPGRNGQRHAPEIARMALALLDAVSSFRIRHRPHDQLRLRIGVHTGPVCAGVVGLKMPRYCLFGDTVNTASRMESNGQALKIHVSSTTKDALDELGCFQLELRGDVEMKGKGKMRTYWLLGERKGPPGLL
Procedure: as §1
NP/pGC-B/cGMP Potency Assay: Human plasma samples from patients with ADHF (N=6) were utilized. Stably transfected HEK293 cells engineered to overexpress human pGC-B were cultured (as described above) and grown in 48-well plates to 80-90% confluence. On the day of the experiment, human plasma was diluted 10× with HBSS. Diluted plasma (250 μl) was added together with vehicle (PBS), native CNP (an endogenous pGC-B activator), C53 (a designer CNP analog/pGC-B activator) or CRRL-408 (a designer dual pGC-A and pGC-B activator) at doses of 10^−10, 10^−8, or 10^−7 M to the HEK/GC-B cells and incubated for 10 minutes at 37° C. Afterwards, cells were washed once with PBS and lysed with 0.1M HCl. cGMP was then assayed using an ELISA (Enzo Life Sciences) as described elsewhere (Chen et al. 2018, supra).

[4] = molecular target: human pGC-A receptor (human) (UniProt P16066); assay: cell-based or functional assay
human pGC-A [5] = molecular target: T2, human pGC-A; assay: NP/pGC-A/cGMP potency assay (Example 5), HEK293 cells overexpressing human pGC-A; format: cell-based
Procedure: as §1
NP/pGC-A/cGMP Potency Assay: Human plasma samples from patients with HT (N=6), ADHF (N=6), and CKD (N=5) were utilized. Stably transfected HEK293 cells engineered to overexpress human pGC-A were cultured (as described above) and were grown in 48-well plates to 80-90% confluence. On the day of the experiment, human plasma was diluted 10× with HBSS. […] Afterwards, the cells were washed once with PBS and lysed with 0.1M HCl. cGMP was then assayed using an ELISA (Enzo Life Sciences) as described elsewhere (Chen et al. 2018, supra).

For `CN(C)CCN1CCCC(C(=O)Nc2nc3c(F)cc(F)cc3s2)C1` (stereo not drawn) [MCUF-651], the “generation of cGMP levels” value (human GC-A [1]; 1, 5 or 10 μM, plasma from normal subjects, hypertensive and HF patients (all three cohorts)) was “potentiated”, the “cGMP potency compared between cohorts” value (human GC-A [1]; HF plasma, highest circulating ANP and BNP) was “greatest cGMP potency” and the cGMP potency (human pGC-A [2]; ADHF plasma with higher circulating ANP and BNP) was “higher cGMP potency”. For the same compound, the cGMP potency (human pGC-A [2]; ADHF plasma with lower circulating ANP and BNP) was “lower cGMP potency”, the cGMP levels (human pGC-A [2]; ADHF plasma, dose 1 μM) was “modestly potentiated” and the cGMP levels (human pGC-A [2]; ADHF plasma, dose 5 μM) was “markedly potentiated”. For the same compound, the cGMP levels (human pGC-A [2]; ADHF plasma, dose 10 μM) was “markedly potentiated”, the cGMP levels (human pGC-A [2]; CKD plasma, dose 1 μM) was “no response” and the cGMP levels (human pGC-A [2]; CKD plasma, dose 5 μM) was “minimally potentiated”. For the same compound, the cGMP levels (human pGC-A [2]; CKD plasma, dose 10 μM) was “minimally potentiated”, the cGMP levels (human pGC-A [2]; HT plasma, dose 1 μM) was “modestly potentiated” and the cGMP levels (human pGC-A [2]; HT plasma, dose 5 μM) was “markedly potentiated”. The cGMP levels (human pGC-A [2]; HT plasma, dose 10 μM) was “markedly potentiated”.
With “B-type natriuretic peptide [BNP, reference compound]” the “mean cGMP level” value (human GC-A [3]; synthetic peptide alone, concentrations corresponding to ADHF deficient ANP and BNP plasma (ANP 16.8, BNP 47.4 pg/mL), 10 min) was 6.9 ± 0.9 pmol/mL, the “mean cGMP level” value (human GC-A [3]; synthetic peptide alone, concentrations corresponding to ADHF elevated ANP and BNP plasma (ANP 350, BNP 1225.7 pg/mL), 10 min) was 80.3 ± 16.9 pmol/mL and the “mean cGMP level” value (human GC-A [3]; synthetic peptide alone, concentrations mimicking healthy subject plasma (ANP 25.5, BNP 27 pg/mL), 10 min) was 4.7 ± 0.4 pmol/mL.
With “C53: designer pGC-B activator, 53 amino acid intermediate form of CNP (SEQ ID NO:5) (DLRVDTKSRAAWARLLQEHPNARKYKGANKKGLSKGCFGLKLDRIGSMSGLGC)” the cGMP levels (human pGC-B; dose 10^-8 M) was “markedly potentiated” and the cGMP levels (human pGC-B; dose 10^-10 M (in a single patient)) was “modestly potentiated”.
In the case of “C-type natriuretic peptide [CNP, reference compound]”, the cGMP levels (human pGC-B; dose 10^-8 M) is reported as “markedly potentiated”.
Work on “MANP (designer pGC-A activator) (peptide)” yielded a cGMP in HEK293 cells overexpressing human GC-A; plasma of ADHF patients with elevated ANP and BNP plus 10^-8 M MANP [4] of 201 pmol/mL and a cGMP in HEK293 cells overexpressing human GC-A; plasma of ADHF patients with elevated ANP and BNP plus 10^-10 M MANP [4] of 60.4 pmol/mL.
“MANP: designer pGC-A activator, polypeptide SLRRSSCFGGRMDRIGAQSGLGCNSFRYRITAREDKQGWA (SEQ ID NO:1)” was tested, and the cGMP levels (human pGC-A [5]; ADHF plasma, dose 10^-8 M) was “markedly potentiated”, the cGMP levels (human pGC-A [5]; ADHF plasma, dose 10^-10 M) was “modestly potentiated” and the cGMP levels (human pGC-A [5]; CKD plasma, dose 10^-8 M) was “markedly potentiated”. The cGMP levels (human pGC-A [5]; CKD plasma, dose 10^-10 M) was “modestly potentiated”, the cGMP levels (human pGC-A [5]; HT plasma, dose 10^-8 M) was “markedly potentiated” and the cGMP levels (human pGC-A [5]; HT plasma, dose 10^-10 M) was “modestly potentiated”. For the same compound, the “mean cGMP level” value (human GC-A [3]; healthy plasma + 10^-8 M MANP) was 167 ± 14.1 pmol/mL, the “mean cGMP level” value (human GC-A [3]; healthy plasma + 10^-10 M MANP) was 45 ± 5.5 pmol/mL and the “mean cGMP level” value (human GC-A [3]; plasma of deficient ANP and BNP ADHF patients + 10^-8 M MANP) was 166.9 ± 9.1 pmol/mL. For the same compound, the “mean cGMP level” value (human GC-A [3]; plasma of deficient ANP and BNP ADHF patients + 10^-10 M MANP) was 33.8 ± 1.4 pmol/mL, the “mean cGMP level” value (human GC-A [3]; plasma of elevated ANP and BNP ADHF patients + 10^-8 M MANP) was 200.8 ± 5.4 pmol/mL and the “mean cGMP level” value (human GC-A [3]; plasma of elevated ANP and BNP ADHF patients + 10^-10 M MANP) was 60.4 ± 9.7 pmol/mL.
“synthetic human BNP (from UniProt P16860 103-134) (ligand)” showed a cGMP in HEK293 cells overexpressing human GC-A; synthetic BNP at the level of ADHF plasma with elevated ANP and BNP (1225.7 pg/mL) [4] of 80.3 pmol/mL, a mean cGMP in HEK293 cells overexpressing human GC-A; synthetic BNP at 27 pg/mL (level of healthy plasma) [4] of 4.7 pmol/mL and a mean cGMP in HEK293 cells overexpressing human GC-A; synthetic BNP at the level of ANP and BNP deficient ADHF plasma (47.4 pg/mL) [4] of 6.9 pmol/mL.
